Tests used:
RNaseA [1] = biological target: T1, RNaseA (Bos taurus, UniProt P61823); assay: phage ELISA, multivalent display, immobilised RNaseA, anti-M13 antibody and HRP-conjugated secondary antibody, absorbance
T1 construct: commercial protein
T1 sequence (single chain, looked up): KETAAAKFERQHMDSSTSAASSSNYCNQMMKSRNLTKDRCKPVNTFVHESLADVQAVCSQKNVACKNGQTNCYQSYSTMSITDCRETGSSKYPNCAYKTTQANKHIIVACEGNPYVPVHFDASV
Experimental: (§1) Phage ELISA experiments were performed to analyse selected clones for binding to lysozyme. Ninety-six-well ELISA plates were coated with 5 ug/ml hen egg lysozyme, 5 ug/ml RNaseA or 1% BSA in PBS at 4° C. overnight. After two washes with TBS, plates were blocked with blocking buffer (5% skim milk in TBS) for one hour at RT before phage (10^9 cfu/well, derived from VCS-M13d3) were added in 2.5% skim milk-TBS-T. Plates were incubated for 2 hours at RT with agitation. After 10 washes with H_2O, mouse anti-M13 protein VIII diluted in blocking buffer was added and incubated for 1 h at RT. Plates were washed 4 times with H_2O and horseradish peroxidase (HRP)-coupled rabbit-anti-mouse immunoglobulins (Pierce) in blocking buffer were added to the wells and incubated for 1 h at RT. Wells were washed 4 times with H_2O and 50 ul substrate solution (1 mg/ml o-phenylene-diamine in PBS 0.030% H_2O_2) was added per well. The reaction was stopped after ~15 min by addition of 25 ul 2.5 M H_2SO_4 and the absorbance was recorded at 492 nm.
(§2) BSA (white), RNaseA (hatched) and hen egg white lysozyme (black) were immobilised and incubated with monoclonal phage samples. Bound particles were detected with a mouse anti-M13 primary antibody and an HRP-conjugated anti-mouse secondary antibody. […] Bound phage were eluted and counted by bacterial infection.

hen egg white lysozyme [2] = biological target: T2, hen egg white lysozyme (Gallus gallus, UniProt P00698 19-147); assay: phage ELISA, multivalent display, immobilised hen egg white lysozyme, anti-M13 antibody and HRP-conjugated secondary antibody, absorbance
T2 construct: mature; The residue numbers E35, D52, W63, D101 and N103 fit mature numbering; also called hen egg lysozyme; Gallus gallus egg white lysozyme
Experimental: as §1, §2

BSA [3] = biological target: T3, BSA (Bos taurus, UniProt P02769); assay: micropanning: monoclonal phage on BSA coated on a 96-well plate, bound phage eluted and counted
T3 construct: commercial protein; also called Bovine Serum Albumine

hen egg white lysozyme [4] = biological target: T2, hen egg white lysozyme; assay: SPR (Biacore), lysozyme amine-coupled to CM5 chip, L6 as analyte from 370 µM in 1:2 dilutions, steady-state response plot
Experimental: The ligand lysozyme was coupled to a CM5 Biacore sensor chip, at 30 µg/mL in sodium acetate buffer at pH 4.3 via the primary amine groups of the protein. The second of four flow cells available on the chip was activated with 35 µL, at 5 µL/min, of a 1:1 mixture of EDC:NHS (commercially available from Biacore). Lysozyme was coupled to the activated surface with successive injections of between 10-20 µL, until an adequate response was seen. Remaining uncoupled active groups on the chip were deactivated with an injection of ethanolamine-HCl. For analysis, OB3 13mRL L6 was organized in a 1:2 dilution series of six concentrations, beginning at 370 µM in running buffer, plus a buffer-only blank. Each of the seven samples were analyzed in duplicate for 1 min @ 25 µL/min, in random order, using the first flow cell as a reference. The response curves were visualized and processed using BIAevaluation (Biacore). Relative response at each concentration was averaged and plotted to determine Rmax and kD using Sigma Plot (Systat Software, Inc.).

hen egg white lysozyme [5] = biological target: T2, hen egg white lysozyme; assay: micropanning: monoclonal phage on lysozyme coated on a 96-well plate, bound phage eluted and counted by bacterial infection
Experimental: BSA (white), RNaseA (hatched) and hen egg white lysozyme (black) were immobilised and incubated with monoclonal phage samples. Bound particles were detected with a mouse anti-M13 primary antibody and an HRP-conjugated anti-mouse secondary antibody. […] A 96-well plate was coated with lysozyme (black bars) or BSA (white bars) and incubated with monoclonal phage samples from clones picked after 6 rounds of selection. Bound phage were eluted and counted by bacterial infection.
Hen egg white lysozyme is a small stable protein which is commercially available and has a number of medically important human homologues. After four rounds of panning on immobilised lysozyme, enrichment of bound phage was observed. A further two more rounds of panning were performed before clones were randomly picked and screened for binding to lysozyme. Monoclonal phage samples were then prepared and studies were undertaken to characterize binding in a 'micropanning' approach on lysozyme immobilised on a 96-well ELISA plate. Bound phage were eluted and counted. […] These clones were sequenced. Sequences for some of the clones were identical (L14 and L15; L4 and L18; L8 and L21) narrowing down the number of unique clones to six.

hen egg white lysozyme [6] = biological target: T2, hen egg white lysozyme; assay: surface plasmon resonance; L8, from the crystal-structure interface table
RNaseA [7] = biological target: T1, RNaseA; assay: phage ELISA, immobilised RNaseA, anti-M13 antibody and HRP-conjugated secondary antibody, absorbance
hen egg white lysozyme [8] = biological target: T2, hen egg white lysozyme; assay: phage ELISA on immobilised lysozyme, multivalent display
BSA [9] = biological target: T3, BSA; assay: phage ELISA, immobilised BSA, anti-M13 antibody and HRP-conjugated secondary antibody, absorbance

T3 sequence (P02769 25-607 limits assumed): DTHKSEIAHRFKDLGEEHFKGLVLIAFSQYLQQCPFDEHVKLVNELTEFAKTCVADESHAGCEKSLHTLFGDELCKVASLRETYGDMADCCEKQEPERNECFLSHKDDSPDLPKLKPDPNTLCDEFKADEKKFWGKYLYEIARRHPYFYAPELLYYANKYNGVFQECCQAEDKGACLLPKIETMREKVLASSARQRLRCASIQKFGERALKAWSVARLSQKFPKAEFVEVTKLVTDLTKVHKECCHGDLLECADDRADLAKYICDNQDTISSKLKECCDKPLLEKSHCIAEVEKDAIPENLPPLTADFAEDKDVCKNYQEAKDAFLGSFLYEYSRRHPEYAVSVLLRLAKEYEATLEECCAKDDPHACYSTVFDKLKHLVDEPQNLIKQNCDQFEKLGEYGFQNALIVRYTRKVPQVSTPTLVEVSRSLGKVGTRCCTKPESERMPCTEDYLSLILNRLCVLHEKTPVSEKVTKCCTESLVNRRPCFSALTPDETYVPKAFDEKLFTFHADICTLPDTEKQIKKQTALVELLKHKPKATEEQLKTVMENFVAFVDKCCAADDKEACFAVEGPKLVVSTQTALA
T2 sequence (P00698 19-147): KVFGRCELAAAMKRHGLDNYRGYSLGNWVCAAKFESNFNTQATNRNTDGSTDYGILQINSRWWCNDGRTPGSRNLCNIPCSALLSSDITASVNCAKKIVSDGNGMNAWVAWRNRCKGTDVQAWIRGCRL

B1: L14 (aspRS-OB 13mRL mutant) displayed on phage as pIII fusion (designed binder)
chain: VYPKKTHWTAEITPNLHGTEVVVAGWVSDLLDAGRAKYVFVYDREGGAEVMVTLAAGKTPDHLFKVFAELSREDVVVIKGIVEASKGWRDGVEIFPSEIWILNKAKPLPID
notes: Monoclonal phage; also called L15; L32; not shown: c-myc tag and pIII of phagemid pRPSP2 (display carriers at the C end)
Q: Does B1 bind (RNaseA [1])?
A: Result: binds

Q: Does B1 bind (hen egg white lysozyme [2])?
A: Result: binds

Q: Does B1 bind (BSA [3])?
A: Result: no binding

B2: L6 (aspRS-OB 13mRL mutant) displayed on phage as pIII fusion (designed binder)
chain: VYPKKTHWTAEITPNLHGTEVVVAGWVEDLVDAGKTKWVFVCDREGGAQVIVELVAGKTPDHLFKVFAELSREDVVVIKGIVEASKSRAVGVEIFPSEIWILNKAKPLPID
notes: Monoclonal phage; Monovalent display in micropanning, multivalent display in ELISA; not shown: c-myc tag and pIII of phagemid pRPSP2 (display carriers at the C end)
Q: Does B2 bind (BSA [3])?
A: Result: no binding

B3: OB3 13mRL L6, expressed and purified (designed binder)
chain: B2 chain
notes: Analyte in the Biacore experiment; also called Clone L6; selected OB-fold domain L6
Q: How did the Kd (hen egg white lysozyme [4]) turn out when B3 was run?
A: Its Kd is 36 µM.

B4: L16 (aspRS-OB 13mRL mutant) displayed on phage as pIII fusion (designed binder)
chain: VYPKKTHWTAEITPNLHGTEVVVAGWVASLVDGGPRKWVFVRDREGGAEVTVELTAGKTPDHLFKVFAELSREDVVVIKGIVEASKGLRWGVEIFPSEIWILNKAKPLPID
notes: Monoclonal phage, monovalent display, micropanning only; not shown: c-myc tag and pIII of phagemid pRPSP2 (display carriers at the C end)
Q: Which results are given for B4?
A: binding result (BSA [3]): no binding; binding result (hen egg white lysozyme [5]): binds

B5: L5 (aspRS-OB 13mRL mutant) displayed on phage as pIII fusion (designed binder)
chain: VYPKKTHWTAEITPNLHGTEVVVAGWVTDLVDAGTWKFVQVADREGGANVWVSLVAGKTPDHLFKVFAELSREDVVVIKGIVEASKLPSYGVEIFPSEIWILNKAKPLPID
notes: as for B2
Q: Does B5 bind (hen egg white lysozyme [2])?
A: Result: binds

Q: Does B5 bind (BSA [3])?
A: Result: no binding

B6: L8 (aspRS-OB 13mRL mutant) displayed on phage as pIII fusion (designed binder)
chain: VYPKKTHWTAEITPNLHGTEVVVAGWVASLGDYGRVKIVKVSDREGGAAVPVYLEAGKTPDHLFKVFAELSREDVVVIKGIVEASKGVGRGVEIFPSEIWILNKAKPLPID
notes: Monoclonal phage; also called L21; L33; not shown: c-myc tag and pIII of phagemid pRPSP2 (display carriers at the C end)
Q: Does B6 bind (BSA [3])?
A: Result: no binding

B7: OBody L8, purified, GST tag removed (designed binder)
chain: B6 chain
notes: GST tag removed with rTEV protease; Used for co-crystallisation with lysozyme
Q: How did the Kd (hen egg white lysozyme [6]) turn out when B7 was run?
A: The Kd was 36 µM.

B8: L34 (aspRS-OB 13mRL mutant) displayed on phage as pIII fusion (designed binder)
chain: VYPKKTHWTAEITPNLHGTEVVVAGWVVGLMDEGALKGVEVRDREGGAPVEVTLEAGKTPDHLFKVFAELSREDVVVIKGIVEASKGYGSGVEIFPSEIWILNKAKPLPID
notes: Monoclonal phage, multivalent display, ELISA; not shown: c-myc tag and pIII of phagemid pRPSP2 (display carriers at the C end)
Q: Does B8 bind (RNaseA [7])?
A: Result: no binding (tested: 10^9 cfu/well)

Q: Does B8 bind (hen egg white lysozyme [8])?
A: Result: binds

Q: Does B8 bind (BSA [9])?
A: Result: no binding (tested: 10^9 cfu/well)
